In CN116143917A (DONGGUAN PENGZHI BIOTECHNOLOGY CO LTD, dated 2023) one finds Kd, koff and kon data, which are given here for two molecules.

For this assay, the target named is T1, D-二聚体抗原(购自菲鹏).
T1 chain 1: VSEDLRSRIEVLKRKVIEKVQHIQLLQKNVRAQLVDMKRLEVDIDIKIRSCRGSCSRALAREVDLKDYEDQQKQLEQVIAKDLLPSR
T1 chain 2: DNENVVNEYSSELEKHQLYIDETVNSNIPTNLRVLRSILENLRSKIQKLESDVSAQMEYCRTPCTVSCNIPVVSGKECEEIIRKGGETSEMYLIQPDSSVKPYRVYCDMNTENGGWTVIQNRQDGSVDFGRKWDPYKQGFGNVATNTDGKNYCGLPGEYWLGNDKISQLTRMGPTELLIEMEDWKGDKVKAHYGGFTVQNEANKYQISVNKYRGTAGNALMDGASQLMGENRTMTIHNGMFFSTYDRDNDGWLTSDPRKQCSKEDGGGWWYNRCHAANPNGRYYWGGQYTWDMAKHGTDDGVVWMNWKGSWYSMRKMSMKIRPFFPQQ
T1 chain 3: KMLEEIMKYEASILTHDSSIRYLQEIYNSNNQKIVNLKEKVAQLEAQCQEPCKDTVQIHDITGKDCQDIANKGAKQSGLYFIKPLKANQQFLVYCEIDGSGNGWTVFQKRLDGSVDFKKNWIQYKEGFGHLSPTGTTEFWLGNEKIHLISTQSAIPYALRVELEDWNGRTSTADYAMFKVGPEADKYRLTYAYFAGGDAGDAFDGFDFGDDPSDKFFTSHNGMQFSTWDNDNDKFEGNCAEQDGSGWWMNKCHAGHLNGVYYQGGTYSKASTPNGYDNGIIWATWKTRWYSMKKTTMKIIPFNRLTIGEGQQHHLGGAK
Put plainly: BLI, AMC sensor, antibody immobilised, D-dimer antigen in serial dilution.

The molecule 对照抗体 (antibody) gave a Kd of 21.4 nM, a koff of 0.000132 s⁻¹ and a kon of 6170 M⁻¹ s⁻¹.

B1: 14D2RMb-1 (antibody, mouse IgG2a, kappa)
heavy: QVQLQQSGPELVRPGVSVKISCKGSGYRFTDYSIHWLKQSHAKSLEWIGVISTYSGNPDYNQKFKGKATMTVDQSSSTAYMELARLTSDDSAIYYCSRMNDYYGDYFFDHWGQGTTLIVSSAKTTAPSVYPLAPVCGDTTGSSVTLGCLVKGYFPEPVTLTWNSGSLSSGVHTFPAVLQSDLYTLSSSVTVTSSTWPSQSITCNVAHPASSTKVDKKIEPRGPTIKPCPPCKCPAPNLLGGPSVFIFPPKIKDVLMISLSPIVTCVVVDVSEDDPDVQISWFVNNVEVHTAQTQTHREDYNSTLRVVSALPIQHQDWMSGKEFKCKVNNKDLPAPIERTISKPKGSVRAPQVYVLPPPEEEMTKKQVTLTCMVTDFMPEDIYVEWTNNGKTELNYKNTEPVLDSDGSYFMYSKLRVEKKNWVERNSYSCSVVHEGLHNHHTTKSFSRTPGK
light: DVVMTQTPLSLFVDLGDPASISCRSSQSLVHTNGNTYLHWYLQKPGQSPRLLIYKVSNRFSGVPDRFSGSGSGTDFTFKISSVEAEDLGLYFCSQSRHVPLTFGAGTKLELKRADAAPTVSIFPPSSEQLTSGGASVVCFLNNFYPKDINVKWKIDGSERQNGVLNSWTDQDSKDSTYSMSSTLTLTKDEYERHNSYTCEATHKTSTSPIVKSFNRNEC
notes: Recombinant monoclonal antibody made in CHO cells from hybridoma genes; also called 14D2RMb-1抗体
Take B1: the Kd amounted to 9.9 nM, the koff was determined as 0.00545 s⁻¹ and the kon came out at 550000 M⁻¹ s⁻¹.
